According to IntAct's records for PubMed 25910212:

B1: Interleukin-1 alpha (Homo sapiens), P01583 (parent)
chain: MAKVPDMFEDLKNCYSENEEDSSSIDHLSLNQKSFYHVSYGPLHEGCMDQSVSLSISETSKTSKLTFKESMVVVATNGKVLKKRRLSLSQSITDDDLEAIANDSEEEIIKPRSAPFSFLSNVKYNFMRIIKYEFILNDALNQSIIRANDQYLTAAALHNLDEAVKFDMGAYKSSKDDAKITVILRISKTQLYVTAQDEDQPVLLKEMPEIPKTITGSETNLLFFWETHGTKNYFTSVAHPNLFIATKQDYWVCLAGGPPSITDFQILENQA
B2: U4/U6 small nuclear ribonucleoprotein Prp31 (Homo sapiens), Q8WWY3 (parent)
chain: MSLADELLADLEEAAEEEEGGSYGEEEEEPAIEDVQEETQLDLSGDSVKTIAKLWDSKMFAEIMMKIEEYISKQAKASEVMGPVEAAPEYRVIVDANNLTVEIENELNIIHKFIRDKYSKRFPELESLVPNALDYIRTVKELGNSLDKCKNNENLQQILTNATIMVVSVTASTTQGQQLSEEELERLEEACDMALELNASKHRIYEYVESRMSFIAPNLSIIIGASTAAKIMGVAGGLTNLSKMPACNIMLLGAQRKTLSGFSSTSVLPHTGYIYHSDIVQSLPPDLRRKAARLVAAKCTLAARVDSFHESTEGKVGYELKDEIERKFDKWQEPPPVKQVKPLPAPLDGQRKKRGGRRYRKMKERLGLTEIRKQANRMSFGEIEEDAYQEDLGFSLGHLGKSGSGRVRQTQVNEATKARISKTLQRTLQKQSVVYGGKSTIRDRSSGTASSVAFTPLQGLEIVNPQAAEKKVAEANQKYFSSMAEFLKVKGEKSGLMST
partner: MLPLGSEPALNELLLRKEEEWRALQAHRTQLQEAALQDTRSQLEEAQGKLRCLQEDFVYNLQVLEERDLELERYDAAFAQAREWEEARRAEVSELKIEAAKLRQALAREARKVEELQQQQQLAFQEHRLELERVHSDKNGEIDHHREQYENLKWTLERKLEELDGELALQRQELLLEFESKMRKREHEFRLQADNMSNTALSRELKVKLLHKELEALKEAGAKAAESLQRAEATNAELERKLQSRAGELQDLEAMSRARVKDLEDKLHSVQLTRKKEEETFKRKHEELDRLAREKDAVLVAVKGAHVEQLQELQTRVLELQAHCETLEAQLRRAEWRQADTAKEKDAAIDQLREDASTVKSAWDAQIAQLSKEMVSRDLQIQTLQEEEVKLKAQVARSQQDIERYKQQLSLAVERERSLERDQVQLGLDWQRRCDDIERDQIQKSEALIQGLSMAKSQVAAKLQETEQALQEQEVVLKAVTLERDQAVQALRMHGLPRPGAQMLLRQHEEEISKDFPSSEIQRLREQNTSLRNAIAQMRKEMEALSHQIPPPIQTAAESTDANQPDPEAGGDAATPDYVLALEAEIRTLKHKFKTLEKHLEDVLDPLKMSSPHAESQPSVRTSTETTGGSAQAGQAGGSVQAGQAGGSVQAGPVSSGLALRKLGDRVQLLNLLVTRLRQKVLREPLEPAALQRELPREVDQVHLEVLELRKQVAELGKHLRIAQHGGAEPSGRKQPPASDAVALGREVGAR
B3: Inhibin alpha chain (Homo sapiens), P05111 (parent)
chain: MVLHLLLFLLLTPQGGHSCQGLELARELVLAKVRALFLDALGPPAVTREGGDPGVRRLPRRHALGGFTHRGSEPEEEEDVSQAILFPATDASCEDKSAARGLAQEAEEGLFRYMFRPSQHTRSRQVTSAQLWFHTGLDRQGTAASNSSEPLLGLLALSPGGPVAVPMSLGHAPPHWAVLHLATSALSLLTHPVLVLLLRCPLCTCSARPEATPFLVAHTRTRPPSGGERARRSTPLMSWPWSPSALRLLQRPPEEPAAHANCHRVALNISFQELGWERWIVYPPSFIFHYCHGGCGLHIPPNLSLPVPGAPPTPAQPYSLLPGAQPCCAALPGTMRPLHVRTTSDGGYSFKYETVPNLLTQHCACI
partner: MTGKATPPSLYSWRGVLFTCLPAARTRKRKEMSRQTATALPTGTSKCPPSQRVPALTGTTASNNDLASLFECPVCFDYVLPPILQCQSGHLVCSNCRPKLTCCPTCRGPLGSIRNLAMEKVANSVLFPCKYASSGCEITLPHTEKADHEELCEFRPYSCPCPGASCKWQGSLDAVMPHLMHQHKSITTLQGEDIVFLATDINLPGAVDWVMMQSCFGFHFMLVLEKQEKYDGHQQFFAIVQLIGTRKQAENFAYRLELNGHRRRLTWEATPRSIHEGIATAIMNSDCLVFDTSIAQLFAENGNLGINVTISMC
B4: Cytidine deaminase (Homo sapiens), P32320 (parent)
chain: MAQKRPACTLKPECVQQLLVCSQEAKKSAYCPYSHFPVGAALLTQEGRIFKGCNIENACYPLGICAERTAIQKAVSEGYKDFRAIAIASDMQDDFISPCGACRQVMREFGTNWPVYMTKPDGTYIVMTVQELLPSSFGPEDLQKTQ
partner: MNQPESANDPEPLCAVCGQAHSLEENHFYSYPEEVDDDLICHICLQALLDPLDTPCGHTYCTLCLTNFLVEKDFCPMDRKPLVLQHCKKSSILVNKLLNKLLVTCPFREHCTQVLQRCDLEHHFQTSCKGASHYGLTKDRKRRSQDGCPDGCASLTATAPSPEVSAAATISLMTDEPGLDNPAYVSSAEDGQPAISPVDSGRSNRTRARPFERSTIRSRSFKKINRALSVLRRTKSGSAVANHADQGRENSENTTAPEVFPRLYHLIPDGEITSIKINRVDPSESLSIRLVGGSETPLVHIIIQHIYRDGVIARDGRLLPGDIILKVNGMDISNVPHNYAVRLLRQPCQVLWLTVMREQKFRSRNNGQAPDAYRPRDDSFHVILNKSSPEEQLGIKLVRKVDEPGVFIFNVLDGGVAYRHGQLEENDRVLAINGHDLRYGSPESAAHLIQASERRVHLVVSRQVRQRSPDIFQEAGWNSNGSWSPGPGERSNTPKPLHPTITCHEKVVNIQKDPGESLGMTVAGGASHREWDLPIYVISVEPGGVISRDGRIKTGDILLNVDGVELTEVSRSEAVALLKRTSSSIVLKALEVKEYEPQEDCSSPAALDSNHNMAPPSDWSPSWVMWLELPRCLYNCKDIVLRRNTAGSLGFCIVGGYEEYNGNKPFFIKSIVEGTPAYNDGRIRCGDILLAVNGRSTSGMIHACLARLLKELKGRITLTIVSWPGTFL

Variants of: B1
Details: with ima7_human KPNA6, O60684

Variant | effect of a mutation on the interaction
S113A | with no effect
A114S | with no effect

Variants of: B1
Details: with meox2_human MEOX2, P50222
Chain of meox2_human MEOX2, P50222 (P50222 whole entry): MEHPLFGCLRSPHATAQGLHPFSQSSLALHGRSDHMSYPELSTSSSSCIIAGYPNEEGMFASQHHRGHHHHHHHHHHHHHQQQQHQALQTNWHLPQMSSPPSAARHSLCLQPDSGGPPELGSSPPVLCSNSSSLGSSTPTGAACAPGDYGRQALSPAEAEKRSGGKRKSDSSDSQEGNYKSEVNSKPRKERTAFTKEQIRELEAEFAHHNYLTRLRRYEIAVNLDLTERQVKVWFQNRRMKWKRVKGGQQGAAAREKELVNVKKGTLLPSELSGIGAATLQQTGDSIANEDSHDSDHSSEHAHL

Variant | effect of a mutation on the interaction
S113A | with no effect
A114S | with no effect

Variants of: B2
Details: with CCDC57, Q2TAC2-2

Variant | effect of a mutation on the interaction
L107V | with no effect

Variants of: B3
Details: with SIAH1, Q8IUQ4-2

Variant | effect of a mutation on the interaction
P43A | with no effect
A182D | with no effect
A257T | with no effect

Variants of: B4
Details: with lnx1_human LNX1, Q8TBB1

Variant | effect of a mutation on the interaction
A70T | with no effect
